Test results: patent US20170088616A1 (Kyowa Kirin, published 2017)

Key:
human TIM-3 [1] = target: T1, human TIM-3 (human, UniProt Q8TDQ0 22-301); experiment: flow cytometry, Alexa-647 labeled antibody on human TIM-3 EoL-1 cells pre-bound with 10 ug/ml unlabeled competitor: anti-DNP (negative control)
T1 construct: endogenous on Daudi cells in the ADCC test; also called HAVCR2; hTIM-3

[2] = target: T2, Mucin chimeraTIM-3 (human TIM-3 with the mucin domain substituted for mouse TIM-3) (human/mouse chimera); experiment: flow cytometry, transfected HEK293F cells
T2 construct: expressed on HEK293F cells

human TIM-3 [3] = target: T1, human TIM-3; experiment: flow cytometry, Alexa-647 labeled antibody on human TIM-3 EoL-1 cells pre-bound with 10 ug/ml unlabeled competitor: 644

| binding result (human TIM-3 [1]) | binding result [2] | binding result (human TIM-3 [3]) | Binder |
| --- | --- | --- | --- |
| binds | binds |  | antibody 4545 (antibody, V domains shown, Hybridoma isotype IgG2; recombinant form has human IgG1 constant region and kappa chain, made in FUT8-/- CHO cells (defucosylated)) VH: QVQLQESGPGLVKPSETLSLTCTVSGGSFSRGGYYWNWIRQPPGKGLEWIGYIYYSGSTNYNPSLKSRVTISLDTSKNQFSLKLSSVTAADTAVYYCARDHYSSSWTFDYWGQGTLVTVSS VL: EIVLTQSPATLSLSPGERATLSCRASQSVSSYLAWYQQKPGQAPRLLIYDASNRATGIPARFSGSGSGTDFTLTISSLEPEDFAVYYCQQRSNWPPTFGQGTKLEIK |
| binds | binds |  | antibody 644 (antibody, V domains shown, Hybridoma isotype IgG4; recombinant form has human IgG1 constant region and kappa chain, made in FUT8-/- CHO cells (defucosylated)) VH: QVQLVESGGGLVKPGGSLRLSCAASGFTFSDYYMSWIRQAPGKGLEWVSFISSSGSIIYYADSVKGRFTISRDNAKNSLYLQMNSLRAEDTAVYYCARDGYSSSWYYYGMDVWGQGTTVTVSS VL: not shown |
| binds | binds |  | antibody 8213 (antibody, V domains shown, Hybridoma isotype mouse IgG2b; recombinant form has mouse IgG2a constant region and kappa chain, made in HEK293F cells) VH: QVQLQQPGAELVKPGASVKLSCKASGYTFTSYWMHWVKQRPGQGLEWIGEINPSNGRTNYNEKFKTKATLTVDKSSSTAYMQLSSLTSEDSAVYYCAGGYYLYFDYWGQGTTLTVSS VL: DILMTQSPSSMSVSLGDTVNITCHASQGIRINIGWLQQKPGKSFKGLIYHGTNLEDGVPSRFSGSGSGPDYSLTISSLESEDFADYYCVQYGQFPWTFGGGTKLEMK |
|  | binds | binds | antibody 512 (antibody, V domains shown, Hybridoma isotype IgG1; recombinant form has human IgG1 constant region and kappa chain, made in FUT8-/- CHO cells (defucosylated)) VH: QVQLVESGGGVVQPGRSLRLSCAASGFTFNSYGMHWVRQAPGKGLEWVAVIWYDGSNKYYGDSVKGRFTISRDNSKNTLYLQMNSLRAEDTAVYYCAIWFGEMFSEYFQHWGQGTLVTVSS VL: AIQLTQSPSSLSASVGDRVTITCRASQGISSALAWYQQKPGKAPKLLIYDASSLESGVPSRFSGSGSGTDFTLTISSLQPEDFATYYCQQFNSYPLTFGGGTKVEIKR |
